Measured values as given in the supplement of paper PMC10567573.
± gives the standard deviation.

Assay: protein stability index of a GFP-peptide fusion (GPS, HEK-293T) (PSI 1-6); higher = more stable
Conditions: c terminus: a fixed tail appended
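Also: 24-mer peptide tiles fused after GFP, lentivirally expressed, FACS-sorted into six equal bins by GFP/DsRed ratio, decoded by Illumina sequencing, PSI is the read-weighted mean bin number.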

| Sequence | protein stability index (treatment: DMSO) | protein stability index (treatment: MLN4924 1 uM, 8 h) |
| --- | --- | --- |
| CQVFPERLAQGNPQQGFFSSFFTC [ATP23] | 2.07 ± 0.29 | 2.14 ± 0.33 |
| PGTSFKDSTKTAFHRSQTLSYRNG [EFHC1] | 3.68 ± 0.1 | 3.89 ± 0.11 |
| RMQVLKRQVQSLMVHQRKLEAELL [SMARCE1] | 2.17 ± 0.27 | 2.6 ± 0.45 |
| SGDRDENSFSLNSSISSSARRTTR [MAP2] | 5.05 ± 0.28 | 4.97 ± 0.32 |
| YLPTRGGTTMASGGRFRCPSCRHE [TRIM55] | 2.69 ± 0.57 | 3.42 ± 0.43 |
| SRRPLDEAVAGAEGREAPALVAAG [DENND6A] | 4.86 ± 0.35 | 5.19 ± 0.25 |
| LEEDLYELFKKDPGFDRGQFHKQI [PI4K2A] | 3.56 ± 0.14 | 3.56 ± 0.19 |
| RLIATKNPEEIRGGGLLKYSNLLV [TENT5C] | 2.44 ± 0.35 | 2.26 ± 0.26 |
| LSVDPEEEREEGPPRIPQADQWKS [RHOBTB1] | 5.28 ± 0.075 | 5.26 ± 0.24 |
| DGTGASQEPPTTDSQEAQSPGHSS [TOR1AIP2] | 5.56 ± 0.26 | 5.54 ± 0.24 |
| GRSREELDELTGEVAGGGTPLLIA [FEM1A] | 4.6 ± 0.26 | 4.77 ± 0.26 |
| SFPEPEAAQPMTKKRKVDGLSTEA [PRAME] | 5.19 ± 0.3 | 5.16 ± 0.14 |
| LQALDPQQCVDKESSLGSESEEEE [SLC22A15] | 5.56 ± 0.28 | 5.59 ± 0.1 |
| TKLLSGSYDCTVKLWDPVDGSVVR [WDR88] | 3.1 ± 0.33 | 3.19 ± 0.26 |
| LDPVLQAPGTGPAQTELLCCLVKM [FANCE] | 2.47 ± 0.32 | 2.32 ± 0.49 |
| LIESEAPPKASEQETAKEEDGSVE [C18orf25] | 5.59 ± 0.31 | 5.77 ± 0.26 |
| LNRRNGSLRIALSEHLKQRREVAK [EDNRA] | 3.27 ± 0.45 | 3.25 ± 0.27 |
| AVAGPPAAAEVGGGVGGSSRARSA [ANKRD17] | 5.36 ± 0.22 | 5.14 ± 0.33 |
| YYYMGFYIHSCPKMKYKGQYRPSD [ATE1] | 2.25 ± 0.82 | 2.45 ± 0.2 |
| MGNLVMFRKDSVLNILIQSLDWET [INTS3] | 2.68 ± 0.64 | 2.82 ± 0.45 |
| KETLRLHPDIFLPSEICDRLVNEY [ZER1] | 2.82 ± 0.39 | 2.83 ± 0.21 |
| IWLAESVLDILTEQREWVLKSSIL [INTS3] | 2.88 ± 0.82 | 2.6 ± 0.84 |
| IKPPPPLVLNSQQSDTLEQREEHE [RAD54B] | 5.23 ± 0.13 | 5.3 ± 0.34 |

| Sequence | protein stability index (treatment: DMSO) | protein stability index (treatment: MLN4924 1 uM, 8 h) |
| --- | --- | --- |
| NPIIYSFRNPDVQSAIWRMLTGRR [OR3A1] | 2.51 ± 0.41 | 2.58 ± 0.36 |
| YFYLGGARGAGPPEPLRICPLHIS [TRIM35] | 2.44 ± 0.28 | 2.04 ± 0.32 |
| APSNSTSLNSTFGSTNLTGLFFPP [NFE2L1] | 3.32 ± 0.26 | 3.08 ± 0.29 |
| DDYPSRGYSDRDGYGRDRDYSDHP [RBMX] | 4.85 ± 0.3 | 4.87 ± 0.22 |
| LSNLTHVLYPVPLESYEDIHGTLH [PRAME] | 2.5 ± 0.3 | 2.69 ± 0.27 |
| LFYDDYYEDGEVEEEADSCFGDDE [CDC34] | 4.79 ± 0.17 | 4.78 ± 0.3 |
| KNIFRIRFHDPSPAQSHTLQANDV [NET1] | 2.76 ± 0.31 | 3.06 ± 0.24 |
| LIGAAAFLGGVVRMTISLTVILIE [CLCN6] | 3.27 ± 0.53 | 2.75 ± 1.3 |
| RKLSLKGHNDWVMDVAISNNKKWI [WDR88] | 2.69 ± 0.42 | 2.39 ± 0.29 |
| TLALEALVQLRGRLTSQDWERVHL [ALG2] | 2.24 ± 0.27 | 2.32 ± 0.24 |
| DMLLEKLPQVAEEISGPLTSANKI [FLOT1] | 4.15 ± 0.19 | 4.43 ± 0.16 |
| PPHPAPAPQHPAASALRTRMTGGR [DYRK1B] | 4.86 ± 0.23 | 4.9 ± 0.13 |
| CADVILVLQERVRIFAHKIYLSTS [RHOBTB2] | 3.01 ± 0.25 | 3.02 ± 0.49 |
| HTDIKPENILMCVDDAYVRRMAAE [SRPK2] | 4 ± 0.22 | 4.07 ± 0.27 |
| FGSSVPEKQSRCVNIEWHRFRFGQ [WSB1] | 2.07 ± 0.34 | 2.12 ± 0.24 |
| RRIHSLPQKLLGCSPALKRSHSDS [CDC25A] | 4.89 ± 0.29 | 5.21 ± 0.078 |
| ELCHHVAEVWVSGTIFIRNVLLFK [RETREG3] | 3.09 ± 0.67 | 2.81 ± 0.61 |
| VIAINYNEKIYELRVMETKPDKAV [UFD1] | 1.89 ± 0.27 | 2.39 ± 0.24 |
| CTEGPIDLVFVIDGSKSLGEENFE [MATN2] | 2.72 ± 0.29 | 2.52 ± 0.59 |
| SVETLDHDSVVEMIRKGGDQTSLL [PDZK1] | 4.44 ± 0.42 | 4.55 ± 0.28 |
| SARYLEAALRLHRLLRDSEAFCHA [P3H4] | 2.51 ± 0.23 | 2.07 ± 0.2 |
| LEKGSFVGNISKDLGLAPRELAER [PCDHGA10] | 4.43 ± 0.35 | 4.54 ± 0.33 |
